One block for each binder: values may come before it.
Assays:
Assay in all cases: holdup assay
Set-up in all cases: key: below the threshold = too weak to quantify, mostly under pKd 3.1 to 4
Details in all cases: plain residues with an end cap or a label only (N-terminal biotin on a linker: ado-ado)
[1] = biological target: T1, APBA1_1, Q02410
T1 sequence (Q02410 651-752, limits assumed, looked up): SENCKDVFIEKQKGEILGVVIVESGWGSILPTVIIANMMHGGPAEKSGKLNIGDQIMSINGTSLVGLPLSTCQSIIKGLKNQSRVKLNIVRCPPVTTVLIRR

[2] = biological target: T2, APBA2_1, Q99767
T2 sequence (Q99767 563-664, limits assumed, looked up): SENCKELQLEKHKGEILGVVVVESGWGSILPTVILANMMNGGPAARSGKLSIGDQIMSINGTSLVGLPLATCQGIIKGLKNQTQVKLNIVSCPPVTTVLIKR

[3] = biological target: T3, APBA2_2, Q99767
T3 sequence (Q99767 654-744, limits assumed, looked up): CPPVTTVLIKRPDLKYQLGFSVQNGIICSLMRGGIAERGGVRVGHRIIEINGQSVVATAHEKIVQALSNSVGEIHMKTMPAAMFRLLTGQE

[4] = biological target: T4, ARHGEF11, O15085
T4 sequence (O15085 42-136, limits assumed, looked up): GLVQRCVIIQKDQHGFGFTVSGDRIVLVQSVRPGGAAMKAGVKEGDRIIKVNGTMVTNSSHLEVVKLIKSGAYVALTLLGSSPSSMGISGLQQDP

[5] = biological target: CASK, O14936
Sequence of CASK, O14936 (O14936 487-570): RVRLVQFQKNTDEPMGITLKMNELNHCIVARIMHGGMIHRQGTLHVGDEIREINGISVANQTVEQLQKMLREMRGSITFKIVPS

[6] = biological target: T5, DFNB31_1, Q9P202
T5 sequence (Q9P202 135-233, limits assumed, looked up): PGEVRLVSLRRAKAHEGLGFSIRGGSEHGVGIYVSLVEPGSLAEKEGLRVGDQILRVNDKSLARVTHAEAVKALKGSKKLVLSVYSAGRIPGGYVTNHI

[7] = biological target: DLG1_2, Q12959
Sequence of DLG1_2, Q12959 (Q12959 314-412): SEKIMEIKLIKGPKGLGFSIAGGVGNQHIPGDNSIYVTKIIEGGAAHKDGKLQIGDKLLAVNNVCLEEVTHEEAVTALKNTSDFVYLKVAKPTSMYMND

[8] = biological target: DLG1_3, Q12959
Sequence of DLG1_3, Q12959 (Q12959 457-571): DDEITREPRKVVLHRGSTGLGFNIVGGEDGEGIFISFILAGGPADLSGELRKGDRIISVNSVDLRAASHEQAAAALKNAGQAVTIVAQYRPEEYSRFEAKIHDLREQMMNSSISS

[9] = biological target: T6, DLG3_3, Q92796
T6 sequence (Q92796 374-475, limits assumed, looked up): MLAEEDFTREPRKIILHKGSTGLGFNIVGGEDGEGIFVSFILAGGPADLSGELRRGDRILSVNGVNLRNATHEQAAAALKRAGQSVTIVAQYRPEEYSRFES

[10] = biological target: DLG4_1, P78352
Sequence of DLG4_1, P78352 (P78352 62-152): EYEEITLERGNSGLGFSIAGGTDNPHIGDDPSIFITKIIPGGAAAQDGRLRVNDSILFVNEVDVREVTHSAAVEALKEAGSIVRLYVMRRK

[11] = biological target: FRMPD4, Q14CM0
Sequence of FRMPD4, Q14CM0 (Q14CM0 67-160): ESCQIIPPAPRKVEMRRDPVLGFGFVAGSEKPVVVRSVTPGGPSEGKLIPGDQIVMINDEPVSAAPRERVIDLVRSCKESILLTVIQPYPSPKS

[12] = biological target: GOPC, Q9HD26
[13] = biological target: GORASP2, Q9H8Y8
[14] = biological target: GRID2IP_2, A4D2P6
Sequence of GRID2IP_2, A4D2P6 (A4D2P6 272-370): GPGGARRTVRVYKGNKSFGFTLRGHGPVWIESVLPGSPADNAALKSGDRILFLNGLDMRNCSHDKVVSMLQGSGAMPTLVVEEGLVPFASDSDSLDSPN

[15] = biological target: T7, GRIP1_2, Q9Y3R0
T7 sequence (Q9Y3R0 145-248, limits assumed, looked up): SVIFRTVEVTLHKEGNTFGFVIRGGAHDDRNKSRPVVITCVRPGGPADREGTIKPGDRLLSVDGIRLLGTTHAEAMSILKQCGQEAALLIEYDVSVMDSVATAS

[16] = biological target: T8, GRIP1_5, Q9Y3R0
T8 sequence (Q9Y3R0 568-668, limits assumed, looked up): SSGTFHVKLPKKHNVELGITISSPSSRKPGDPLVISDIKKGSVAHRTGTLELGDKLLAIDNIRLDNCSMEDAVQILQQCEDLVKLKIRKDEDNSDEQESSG

[17] = biological target: IL16_1, Q14005
Sequence of IL16_1, Q14005 (Q14005 210-306): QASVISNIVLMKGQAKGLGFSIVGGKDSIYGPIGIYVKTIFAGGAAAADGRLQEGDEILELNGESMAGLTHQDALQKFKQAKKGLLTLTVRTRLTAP

[18] = biological target: IL16_3, Q14005
Sequence of IL16_3, Q14005 (Q14005 1107-1207): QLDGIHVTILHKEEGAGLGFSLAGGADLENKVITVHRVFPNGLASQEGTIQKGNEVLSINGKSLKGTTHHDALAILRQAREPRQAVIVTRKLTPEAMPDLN

[19] = biological target: LNX1_1, Q8TBB1
Sequence of LNX1_1, Q8TBB1 (Q8TBB1 261-371): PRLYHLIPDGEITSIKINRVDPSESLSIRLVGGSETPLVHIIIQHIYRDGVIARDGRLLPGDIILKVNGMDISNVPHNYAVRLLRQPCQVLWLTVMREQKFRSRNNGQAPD

[20] = biological target: LNX1_2, Q8TBB1
Sequence of LNX1_2, Q8TBB1 (Q8TBB1 371-470): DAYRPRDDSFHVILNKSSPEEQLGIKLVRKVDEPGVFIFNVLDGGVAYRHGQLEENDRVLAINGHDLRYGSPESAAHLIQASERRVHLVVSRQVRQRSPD

[21] = biological target: T9, MPDZ_5, O75970
T9 sequence (O75970 695-796, limits assumed, looked up): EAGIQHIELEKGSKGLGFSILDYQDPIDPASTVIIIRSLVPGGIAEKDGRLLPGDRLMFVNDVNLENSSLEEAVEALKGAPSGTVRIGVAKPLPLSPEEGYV

[22] = biological target: T10, MPP2, Q14168
T10 sequence (Q14168 180-250, limits assumed, looked up): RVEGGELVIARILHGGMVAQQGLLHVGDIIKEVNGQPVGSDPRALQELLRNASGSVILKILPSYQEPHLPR

[23] = biological target: T11, NHERF3_3, Q5T2W1
T11 sequence (Q5T2W1 238-333, limits assumed, looked up): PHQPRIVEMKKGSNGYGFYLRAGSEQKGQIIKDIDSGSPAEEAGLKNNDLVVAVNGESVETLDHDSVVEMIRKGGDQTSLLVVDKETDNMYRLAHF

[24] = biological target: NHERF4_4, Q86UT5
Sequence of NHERF4_4, Q86UT5 (Q86UT5 464-550): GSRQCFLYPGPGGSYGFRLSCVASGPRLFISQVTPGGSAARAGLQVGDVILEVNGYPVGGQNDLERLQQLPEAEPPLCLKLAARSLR

[25] = biological target: T12, SNTB1, Q13884
T12 sequence (Q13884 107-205, limits assumed, looked up): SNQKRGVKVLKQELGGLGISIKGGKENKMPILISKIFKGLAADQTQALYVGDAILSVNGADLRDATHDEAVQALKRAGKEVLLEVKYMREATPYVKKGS

[26] = biological target: TJP1_3, Q07157
Sequence of TJP1_3, Q07157 (Q07157 416-512): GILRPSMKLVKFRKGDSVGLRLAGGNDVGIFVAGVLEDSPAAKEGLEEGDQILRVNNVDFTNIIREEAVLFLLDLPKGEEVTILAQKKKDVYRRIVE

pKd [1]: below the threshold
pKd [2]: below the threshold
pKd [3]: below the threshold
pKd [4]: 4.67
pKd [5]: below the threshold
pKd [6]: 3.85
pKd [7]: 4.99
pKd [8]: below the threshold
pKd [9]: below the threshold
pKd [10]: 4.41
pKd [11]: below the threshold
pKd [12]: 3.81
pKd [13]: below the threshold
pKd [14]: 3.84
pKd [15]: below the threshold
pKd [16]: below the threshold
pKd [17]: below the threshold
pKd [18]: below the threshold
pKd [19]: below the threshold
pKd [20]: below the threshold
pKd [21]: below the threshold
pKd [22]: below the threshold
pKd [23]: below the threshold
pKd [24]: below the threshold
pKd [25]: 4.32
pKd [26]: below the threshold
B1: FAT1, Q14517 (peptide)
chain: PLDSQQHTEV

pKd [1]: below the threshold
pKd [2]: below the threshold
pKd [3]: below the threshold
pKd [4]: 4.21
pKd [5]: below the threshold
pKd [6]: below the threshold
pKd [7]: 3.88
pKd [8]: below the threshold
pKd [9]: below the threshold
pKd [10]: below the threshold
pKd [11]: 3.86
pKd [12]: below the threshold
pKd [13]: 3.78
pKd [14]: below the threshold
pKd [15]: below the threshold
pKd [16]: below the threshold
pKd [17]: below the threshold
pKd [18]: below the threshold
pKd [19]: 3.9
pKd [20]: 4.11
pKd [21]: below the threshold
pKd [22]: below the threshold
pKd [23]: below the threshold
pKd [24]: below the threshold
pKd [25]: below the threshold
pKd [26]: below the threshold
B2: GJD2, Q9UKL4 (peptide)
chain: RTQSSDSAYV
